# According to US20160033502:
# T1: activated insulin receptor (pYpY1162/1163-IR) of mouse MS-1 endothelial cells, P15208
# T1 chain: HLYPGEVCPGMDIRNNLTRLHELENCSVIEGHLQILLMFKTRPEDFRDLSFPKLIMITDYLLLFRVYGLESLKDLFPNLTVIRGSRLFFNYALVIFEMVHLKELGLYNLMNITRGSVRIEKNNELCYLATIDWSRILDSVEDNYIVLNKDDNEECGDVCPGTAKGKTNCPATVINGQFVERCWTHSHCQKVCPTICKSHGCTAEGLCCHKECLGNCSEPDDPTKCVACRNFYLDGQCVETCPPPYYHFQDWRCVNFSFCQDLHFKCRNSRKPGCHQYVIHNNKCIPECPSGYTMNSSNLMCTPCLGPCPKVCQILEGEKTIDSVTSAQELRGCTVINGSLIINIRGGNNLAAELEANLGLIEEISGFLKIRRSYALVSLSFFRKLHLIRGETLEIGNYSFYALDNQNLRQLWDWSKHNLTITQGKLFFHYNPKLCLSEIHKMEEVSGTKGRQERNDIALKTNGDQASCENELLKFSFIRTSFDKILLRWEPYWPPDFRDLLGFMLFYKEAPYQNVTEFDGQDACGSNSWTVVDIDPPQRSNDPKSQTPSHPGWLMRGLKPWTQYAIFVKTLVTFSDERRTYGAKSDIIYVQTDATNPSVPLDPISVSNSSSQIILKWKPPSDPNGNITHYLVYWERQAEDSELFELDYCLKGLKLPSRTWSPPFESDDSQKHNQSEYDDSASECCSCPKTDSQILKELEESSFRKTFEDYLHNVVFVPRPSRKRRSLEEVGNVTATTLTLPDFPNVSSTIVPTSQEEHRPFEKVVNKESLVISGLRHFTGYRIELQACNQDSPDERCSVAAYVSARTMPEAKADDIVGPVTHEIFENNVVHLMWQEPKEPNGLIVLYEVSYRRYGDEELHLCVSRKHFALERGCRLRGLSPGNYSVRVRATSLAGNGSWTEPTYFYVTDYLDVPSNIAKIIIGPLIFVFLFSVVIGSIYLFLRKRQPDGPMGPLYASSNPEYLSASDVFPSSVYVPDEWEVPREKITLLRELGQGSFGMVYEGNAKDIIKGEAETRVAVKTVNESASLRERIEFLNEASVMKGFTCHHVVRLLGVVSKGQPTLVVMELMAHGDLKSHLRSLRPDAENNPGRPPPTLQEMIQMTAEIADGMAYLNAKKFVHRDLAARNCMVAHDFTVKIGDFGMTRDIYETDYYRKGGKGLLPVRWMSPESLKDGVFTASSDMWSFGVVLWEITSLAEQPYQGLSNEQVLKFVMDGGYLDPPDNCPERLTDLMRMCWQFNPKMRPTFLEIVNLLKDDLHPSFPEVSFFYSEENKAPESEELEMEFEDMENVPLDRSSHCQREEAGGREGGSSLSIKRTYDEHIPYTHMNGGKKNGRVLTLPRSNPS
# Target: T1, activated insulin receptor …
protein,measurement,value
HA-tagged C215S mutant form of full-length PTP1B (protein) MEMEKEFEQIDKSGSWAAIYQDIRHEASDFPCRVAKLPKNKNRNRYRDVSPFDHSRIKLHQEDNDYINASLIKMEEAQRSYILTQGPLPNTCGHFWEMVWEQKSRGVVMLNRVMEKGSLKCAQYWPQKEEKEMIFEDTNLKLTLISEDIKSYYTVRQLELENLTTQETREILHFHYTTWPDFGVPESPASFLNFLFKVRESGSLSPEHGPVVVHSSAGIGRSGTFCLADTCLLLMDKRKDPSSVDIKKVLLEMRKFRMGLIQTADQLRFSYLAVIEGAKFIMGDSSVQDQWKELSHEDLEPPPEHIPPPPRPPKRILEPHNGKCREFFPNHQWVKEETQEDKDCPIKEEKGSPLNAAPYGIESMSQDTEVRSRVVGGSLRGAQAASPAKGEPSLPEKDEDHALSYWKPFLVNMCVATVLTAGAYLCYRFLFNSNT,"IR pYpY1162/1163 phosphorylation (immunoblot, ratio of phosphorylated InRβ to total InRβ)",such eNOS ablation-caused defect of insulin signaling was significantly restored by ectopic expression of PTP1B-C215S
